Earlier results, collected in PMC2978668.
Read-outs that look alike come from different tables or passages of the source. Blank lines part the entries; values can stand above or below the substance they belong to.

Assays:
fibulin-2 = fibulin-2 (UniProt P98095)
perlecan domain IV [1] = molecular target: perlecan domain IV (UniProt P98160)
perlecan domain IV [2] = molecular target: perlecan domain IV (UniProt P98160); remark: listed apart in the source
fibronectin = fibronectin (UniProt P02751)
α1-laminin = α1-laminin (UniProt P25391)
α2-laminin = α2-laminin (UniProt P24043)
α5-laminin = α5-laminin (UniProt O15230)
perlecan LG = perlecan LG (UniProt P98160)
perlecan LG, sequence (P98160 3687-4391): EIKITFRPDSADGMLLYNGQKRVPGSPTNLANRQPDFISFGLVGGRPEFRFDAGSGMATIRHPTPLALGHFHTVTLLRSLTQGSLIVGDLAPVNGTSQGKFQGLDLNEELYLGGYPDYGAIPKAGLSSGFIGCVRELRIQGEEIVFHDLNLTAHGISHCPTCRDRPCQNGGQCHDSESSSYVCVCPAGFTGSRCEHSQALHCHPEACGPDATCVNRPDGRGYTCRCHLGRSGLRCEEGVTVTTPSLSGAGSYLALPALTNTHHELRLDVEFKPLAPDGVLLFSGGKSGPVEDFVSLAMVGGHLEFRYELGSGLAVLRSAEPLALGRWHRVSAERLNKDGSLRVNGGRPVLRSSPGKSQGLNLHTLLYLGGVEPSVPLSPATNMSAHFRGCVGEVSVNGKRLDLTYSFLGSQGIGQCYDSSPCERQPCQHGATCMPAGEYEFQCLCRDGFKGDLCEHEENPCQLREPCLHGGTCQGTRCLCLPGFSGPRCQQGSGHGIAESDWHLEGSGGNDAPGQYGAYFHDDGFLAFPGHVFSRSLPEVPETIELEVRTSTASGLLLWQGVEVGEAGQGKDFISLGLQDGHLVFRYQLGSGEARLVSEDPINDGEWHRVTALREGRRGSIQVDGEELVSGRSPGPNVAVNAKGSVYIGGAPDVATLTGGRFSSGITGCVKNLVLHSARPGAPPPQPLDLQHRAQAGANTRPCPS

agrin (muscle) = agrin (muscle) (UniProt O00468)
α4-laminin = α4-laminin (UniProt Q16363)

α-dystroglycan, sequence (Q14118 30-653): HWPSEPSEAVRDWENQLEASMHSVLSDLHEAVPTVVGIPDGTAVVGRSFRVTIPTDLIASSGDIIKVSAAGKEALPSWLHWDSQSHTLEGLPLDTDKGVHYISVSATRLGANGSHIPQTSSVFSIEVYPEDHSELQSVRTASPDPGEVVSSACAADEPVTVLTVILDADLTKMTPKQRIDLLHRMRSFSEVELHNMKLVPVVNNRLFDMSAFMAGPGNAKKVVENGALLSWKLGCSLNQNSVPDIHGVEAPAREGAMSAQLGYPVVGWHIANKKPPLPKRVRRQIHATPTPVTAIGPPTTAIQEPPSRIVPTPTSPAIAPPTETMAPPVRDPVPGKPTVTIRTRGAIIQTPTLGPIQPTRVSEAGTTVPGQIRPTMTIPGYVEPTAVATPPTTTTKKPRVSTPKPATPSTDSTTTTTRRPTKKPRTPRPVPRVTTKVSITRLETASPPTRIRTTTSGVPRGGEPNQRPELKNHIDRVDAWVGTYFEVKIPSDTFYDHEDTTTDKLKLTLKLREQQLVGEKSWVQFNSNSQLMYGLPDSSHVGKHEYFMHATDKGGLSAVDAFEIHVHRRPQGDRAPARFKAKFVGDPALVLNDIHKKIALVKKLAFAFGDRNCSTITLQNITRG
perlecan domain IV (UniProt P98160), sequence (P98160 1677-3686): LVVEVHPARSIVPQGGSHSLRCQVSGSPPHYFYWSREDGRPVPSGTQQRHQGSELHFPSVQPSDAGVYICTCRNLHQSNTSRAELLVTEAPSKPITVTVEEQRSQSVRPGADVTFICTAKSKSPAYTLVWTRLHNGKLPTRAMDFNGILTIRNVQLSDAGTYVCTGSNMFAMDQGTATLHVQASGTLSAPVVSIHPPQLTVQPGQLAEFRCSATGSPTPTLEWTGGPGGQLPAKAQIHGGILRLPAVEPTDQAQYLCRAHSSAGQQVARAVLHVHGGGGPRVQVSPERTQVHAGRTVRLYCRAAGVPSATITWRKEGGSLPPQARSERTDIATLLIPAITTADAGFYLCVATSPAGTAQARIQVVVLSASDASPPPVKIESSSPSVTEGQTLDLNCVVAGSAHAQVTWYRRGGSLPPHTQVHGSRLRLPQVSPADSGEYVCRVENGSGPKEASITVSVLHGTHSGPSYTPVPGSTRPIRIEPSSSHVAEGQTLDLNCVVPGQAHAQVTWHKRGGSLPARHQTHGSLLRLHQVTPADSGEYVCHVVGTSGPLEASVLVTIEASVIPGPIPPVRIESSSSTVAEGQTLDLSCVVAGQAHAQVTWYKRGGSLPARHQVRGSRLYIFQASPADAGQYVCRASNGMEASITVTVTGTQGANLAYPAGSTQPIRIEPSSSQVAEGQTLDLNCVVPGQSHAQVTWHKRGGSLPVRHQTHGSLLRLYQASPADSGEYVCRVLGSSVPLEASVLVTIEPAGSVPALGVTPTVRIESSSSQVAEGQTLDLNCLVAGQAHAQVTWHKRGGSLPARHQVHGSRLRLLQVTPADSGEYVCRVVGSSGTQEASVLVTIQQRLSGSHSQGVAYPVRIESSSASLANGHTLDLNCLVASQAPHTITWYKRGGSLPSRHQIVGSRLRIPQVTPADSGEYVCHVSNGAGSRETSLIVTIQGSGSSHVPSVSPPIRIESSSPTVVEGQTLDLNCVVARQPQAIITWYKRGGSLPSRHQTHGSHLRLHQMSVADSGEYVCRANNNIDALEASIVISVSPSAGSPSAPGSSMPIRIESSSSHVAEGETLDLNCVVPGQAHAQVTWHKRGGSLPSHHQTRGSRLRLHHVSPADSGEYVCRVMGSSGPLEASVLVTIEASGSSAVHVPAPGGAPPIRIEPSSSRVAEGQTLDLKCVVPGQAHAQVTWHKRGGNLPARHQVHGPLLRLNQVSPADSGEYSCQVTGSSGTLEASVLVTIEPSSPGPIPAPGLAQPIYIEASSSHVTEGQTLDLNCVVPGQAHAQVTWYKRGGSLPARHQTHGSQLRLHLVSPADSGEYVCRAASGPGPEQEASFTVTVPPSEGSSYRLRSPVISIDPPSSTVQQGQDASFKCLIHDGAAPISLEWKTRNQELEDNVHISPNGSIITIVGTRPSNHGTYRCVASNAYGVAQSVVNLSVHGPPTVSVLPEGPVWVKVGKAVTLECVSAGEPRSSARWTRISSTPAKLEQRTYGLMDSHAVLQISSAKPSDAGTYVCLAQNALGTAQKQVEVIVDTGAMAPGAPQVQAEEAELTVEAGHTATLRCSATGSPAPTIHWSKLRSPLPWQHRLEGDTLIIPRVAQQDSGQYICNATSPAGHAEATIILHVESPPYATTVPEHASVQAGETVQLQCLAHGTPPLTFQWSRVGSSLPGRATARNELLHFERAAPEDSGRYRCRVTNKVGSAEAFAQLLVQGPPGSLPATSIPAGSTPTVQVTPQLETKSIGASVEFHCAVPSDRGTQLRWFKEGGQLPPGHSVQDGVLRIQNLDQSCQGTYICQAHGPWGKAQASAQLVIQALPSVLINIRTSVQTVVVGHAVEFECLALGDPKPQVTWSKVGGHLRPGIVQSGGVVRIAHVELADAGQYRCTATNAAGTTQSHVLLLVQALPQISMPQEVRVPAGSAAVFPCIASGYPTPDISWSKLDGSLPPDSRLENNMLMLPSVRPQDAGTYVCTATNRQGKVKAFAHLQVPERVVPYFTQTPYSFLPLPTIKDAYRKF
fibulin-2, sequence (P98095 28-1184): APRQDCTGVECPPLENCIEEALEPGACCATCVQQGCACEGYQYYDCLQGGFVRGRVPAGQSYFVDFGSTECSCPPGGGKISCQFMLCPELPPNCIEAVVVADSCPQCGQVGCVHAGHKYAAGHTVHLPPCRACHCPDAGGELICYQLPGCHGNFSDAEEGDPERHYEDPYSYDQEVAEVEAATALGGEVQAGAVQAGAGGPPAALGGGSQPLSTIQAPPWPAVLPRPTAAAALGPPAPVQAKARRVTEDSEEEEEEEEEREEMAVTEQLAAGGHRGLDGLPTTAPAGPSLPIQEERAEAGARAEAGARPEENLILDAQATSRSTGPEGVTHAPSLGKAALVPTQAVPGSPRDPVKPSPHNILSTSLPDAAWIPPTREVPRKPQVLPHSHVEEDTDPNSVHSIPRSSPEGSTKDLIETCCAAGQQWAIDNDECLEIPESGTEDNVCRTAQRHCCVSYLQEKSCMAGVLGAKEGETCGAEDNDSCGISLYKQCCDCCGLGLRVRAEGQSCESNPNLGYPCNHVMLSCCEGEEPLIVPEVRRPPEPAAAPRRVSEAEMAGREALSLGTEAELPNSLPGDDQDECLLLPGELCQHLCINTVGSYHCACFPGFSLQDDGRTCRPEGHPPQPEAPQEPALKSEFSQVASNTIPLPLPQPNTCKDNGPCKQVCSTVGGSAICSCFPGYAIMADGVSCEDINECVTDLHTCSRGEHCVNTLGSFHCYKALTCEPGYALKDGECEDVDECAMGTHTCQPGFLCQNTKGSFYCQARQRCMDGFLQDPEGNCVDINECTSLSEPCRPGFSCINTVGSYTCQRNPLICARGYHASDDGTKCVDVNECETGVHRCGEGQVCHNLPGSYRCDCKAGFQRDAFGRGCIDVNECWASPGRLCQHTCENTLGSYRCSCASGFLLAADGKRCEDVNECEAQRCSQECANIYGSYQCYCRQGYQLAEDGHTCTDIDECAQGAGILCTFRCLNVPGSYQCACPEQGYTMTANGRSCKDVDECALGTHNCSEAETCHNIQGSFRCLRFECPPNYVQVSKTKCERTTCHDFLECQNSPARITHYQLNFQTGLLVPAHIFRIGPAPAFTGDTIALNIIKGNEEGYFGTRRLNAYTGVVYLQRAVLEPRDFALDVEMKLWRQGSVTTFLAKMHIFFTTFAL
nidogen-1 G2, sequence (P14543 430-667): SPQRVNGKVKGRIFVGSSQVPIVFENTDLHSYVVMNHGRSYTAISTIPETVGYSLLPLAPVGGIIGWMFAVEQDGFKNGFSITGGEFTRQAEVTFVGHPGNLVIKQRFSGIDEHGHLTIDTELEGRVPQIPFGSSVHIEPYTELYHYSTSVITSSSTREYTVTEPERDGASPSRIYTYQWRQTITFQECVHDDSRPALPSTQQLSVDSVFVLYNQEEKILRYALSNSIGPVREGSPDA
perlecan domain IV (from UniProt P98160), sequence (P98160 1677-3686): as the sequence (P98160 1677-3686) above

Substance: nidogen (from UniProt P14543)
Kd (fibulin-2): < 0.5 nM

Substance: nidogen-1 G2 (from UniProt P14543)
Kd (perlecan domain IV [1]): 10 nM

Substance: α-dystroglycan (from UniProt Q14118)
Kd (α1-laminin): 20 nM
Kd (α2-laminin): 43 nM
Kd (α5-laminin): 150 nM
Kd (perlecan LG): 16 nM
Kd (agrin (muscle)): 2 nM
Kd (α4-laminin): > 1000 nM

The next lines start with the values.

Kd (perlecan domain IV [2]): 10 nM
Substance: nidogen-2 (from UniProt Q14112)

Kd (fibronectin): 10 nM
Substance: perlecan domain IV (from UniProt P98160)
